The values below come from PMC5167558 (Biochemistry, 2015).

The test deals with GST-SPAK 63–390 (mouse, UniProt Q9Z1W9 63-390). Briefly: pull-down.

B1: His6-SPAK 63–390 (domain or fragment)
chain: not shown
Regarding B1, the binding result was “binds”.
